Assay results taken from the Immune Epitope Database (IEDB).

What was measured:
HLA-B*51:01 = experiment: IEDB peptide-MHC binding, purified MHC/competitive/radioactivity; filed as Kd, often an IC50 or EC50 that approximates it; ≥ and ≤ were set here for values at or beyond the usual limits of such assays
HLA-B*18:01 = experiment: as above
HLA-B*45:01 = experiment: as above
HLA-B*40:01 [1] = experiment: as above
HLA-B*40:02 = experiment: as above
HLA-B*44:02 = experiment: as above
HLA-B*44:03 = experiment: as above
HLA-B*35:01 = experiment: as above
HLA-B*15:01 = experiment: as above; details: source organism: Dengue virus 2 Jamaica/1409/1983
HLA-A*24:03 = experiment: IEDB peptide-MHC binding, purified MHC/direct/fluorescence; filed as Kd, often an IC50 or EC50 that approximates it; ≥ and ≤ were set here for values at or beyond the usual limits of such assays
HLA-B*39:01 = experiment: IEDB peptide-MHC binding, purified MHC/competitive/fluorescence; filed as Kd, often an IC50 or EC50 that approximates it; ≥ and ≤ were set here for values at or beyond the usual limits of such assays; details: source organism: Bacillus anthracis str. A0488
HLA-B*07:02 = experiment: IEDB peptide-MHC binding, purified MHC/direct/fluorescence; filed as Kd, often an IC50 or EC50 that approximates it; ≥ and ≤ were set here for values at or beyond the usual limits of such assays; details: source organism: Shewanella violacea
HLA-B*08:01 = experiment: as above; details: source organism: Haemophilus influenzae
HLA-B*27:05 = experiment: as above; details: source organism: Shewanella violacea
HLA-A*01:01 = experiment: as above; details: source organism: Shewanella violacea
HLA-A*02:01 = experiment: as above; details: source organism: Shewanella violacea
HLA-B*40:01 [2] = experiment: as above; details: source organism: Shewanella violacea
HLA-A*03:01 = experiment: as above; details: source organism: Shewanella violacea
HLA-A*31:01 = experiment: as above; details: source organism: Shewanella violacea
HLA-A*69:01 = experiment: as above; details: source organism: Shewanella violacea
HLA-A*26:01 [3] = experiment: as above; details: source organism: Haemophilus influenzae
HLA-B*58:01 = experiment: as above
HLA-A*11:01 = experiment: as above; details: source organism: Shewanella violacea
HLA-B*57:01 = experiment: as above; details: source organism: Amur virus
HLA-A*26:01 [4] = experiment: IEDB peptide-MHC binding, purified MHC/competitive/fluorescence; filed as Kd, often an IC50 or EC50 that approximates it; ≥ and ≤ were set here for values at or beyond the usual limits of such assays; details: source organism: Bacillus anthracis str. A2012
HLA-A*30:02 = experiment: IEDB peptide-MHC binding, purified MHC/competitive/radioactivity; filed as Kd, often an IC50 or EC50 that approximates it; ≥ and ≤ were set here for values at or beyond the usual limits of such assays; details: source organism: Dengue virus 1 Brazil/97-11/1997
[5] = source organism: Dengue virus 1 Brazil/97-11/1997
[6] = source organism: Mammarenavirus brazilense
[7] = source organism: Mammarenavirus tacaribeense
[8] = source organism: SARS coronavirus Tor2
[9] = source organism: Dengue virus 2 Jamaica/1409/1983
[10] = source organism: Mammarenavirus guanaritoense
[11] = source organism: Dengue virus 4 Philippines/H241/1956
[12] = source organism: Mammarenavirus machupoense
[13] = source organism: Mammarenavirus whitewaterense
[14] = source organism: Mammarenavirus lassaense
[15] = source organism: Mammarenavirus choriomeningitidis

Q: With WPISKMDLGV as the sequence, how does the Kd (HLA-B*51:01; [5]) read?
A: 3.16 µM

Q: Which results are given for IDPLIVSTS?
A: Kd (HLA-B*18:01; [6]): ≥ 77500 nM; Kd (HLA-B*45:01; [6]): 18.9 µM; Kd (HLA-B*40:01 [1]; [6]): ≥ 48.4 µM; Kd (HLA-B*40:02; [6]): 4610 nM; Kd (HLA-B*44:02; [6]): ≥ 77.9 µM; Kd (HLA-B*44:03; [6]): 18.3 µM

Q: What does the source list for EEVPTLIKTL?
A: Kd (HLA-B*18:01; [7]): ≥ 70400 nM; Kd (HLA-B*45:01; [7]): 3.02 µM; Kd (HLA-B*40:01 [1]; [7]): 7.52 µM; Kd (HLA-B*40:02; [7]): 6320 nM; Kd (HLA-B*44:02; [7]): 8.59 µM; Kd (HLA-B*44:03; [7]): 3.32 µM

Q: What does the source list for GECPKFVFPL?
A: Kd (HLA-B*18:01; [8]): ≥ 70500 nM; Kd (HLA-B*45:01; [8]): 3.6 µM; Kd (HLA-B*40:01 [1]; [8]): 0.00273 µM; Kd (HLA-B*40:02; [8]): 1.28 nM; Kd (HLA-B*44:02; [8]): 0.952 µM; Kd (HLA-B*44:03; [8]): 0.671 µM

Q: Which Kd (HLA-B*35:01; source organism: Dengue virus 3 Martinique/1243/1999) does the source give for TPPGTADAF here?
A: 278 nM

Q: With LPLPWLPGA as the sequence, how does the Kd (HLA-B*51:01; [9]) read?
A: 0.651 µM

Q: Which results are given for FEEALNVALA?
A: Kd (HLA-B*18:01; [10]): 99.1 nM; Kd (HLA-B*45:01; [10]): 0.0893 µM; Kd (HLA-B*40:01 [1]; [10]): 5.56 µM; Kd (HLA-B*40:02; [10]): 279 nM; Kd (HLA-B*44:02; [10]): ≥ 70.2 µM; Kd (HLA-B*44:03; [10]): ≥ 70.1 µM

Q: With LAFITFLRV as the sequence, how does the Kd (HLA-B*51:01; [11]) read?
A: 4.24 µM

Q: What does the source list for EELSLMYETL?
A: Kd (HLA-B*18:01; [12]): 2460 nM; Kd (HLA-B*45:01; [12]): 0.952 µM; Kd (HLA-B*40:01 [1]; [12]): 10.4 µM; Kd (HLA-B*40:02; [12]): 110 nM; Kd (HLA-B*44:02; [12]): 1.54 µM; Kd (HLA-B*44:03; [12]): 1.32 µM

Q: For REPETTVVL, which Kd (HLA-B*18:01; [13]) is on record?
A: 7900 nM

Q: What about the Kd (HLA-B*45:01; [13]) of the same sequence?
A: ≥ 74.8 µM

Q: And the Kd (HLA-B*40:01 [1]; [13])?
A: 0.112 µM

Q: And the Kd (HLA-B*40:02; [13])?
A: 92.7 nM

Q: And the Kd (HLA-B*44:02; [13])?
A: 18.6 µM

Q: And the Kd (HLA-B*44:03; [13])?
A: ≥ 44.3 µM

Q: NELTLIDFYL was tested. Which Kd (HLA-B*18:01; [8]) did it give?
A: 604 nM

Q: What about the Kd (HLA-B*45:01; [8]) of the same sequence?
A: 1.08 µM

Q: And the Kd (HLA-B*40:01 [1]; [8])?
A: 0.231 µM

Q: What about the Kd (HLA-B*40:02; [8]) of the same sequence?
A: 126 nM

Q: And the Kd (HLA-B*44:02; [8])?
A: 0.157 µM

Q: What about the Kd (HLA-B*44:03; [8]) of the same sequence?
A: 0.051 µM

Q: Which results are given for SAFFGMSRIG?
A: Kd (HLA-B*18:01; [8]): ≥ 70500 nM; Kd (HLA-B*45:01; [8]): ≥ 26.4 µM; Kd (HLA-B*40:01 [1]; [8]): ≥ 44.9 µM; Kd (HLA-B*40:02; [8]): ≥ 70800 nM; Kd (HLA-B*44:02; [8]): 18.4 µM; Kd (HLA-B*44:03; [8]): 8.77 µM

Q: What does the source list for DEILLDGGAS?
A: Kd (HLA-B*18:01; [14]): 70 nM; Kd (HLA-B*45:01; [14]): 5.95 µM; Kd (HLA-B*40:01 [1]; [14]): ≥ 42.9 µM; Kd (HLA-B*40:02; [14]): 902 nM; Kd (HLA-B*44:02; [14]): ≥ 10 µM; Kd (HLA-B*44:03; [14]): ≥ 25.9 µM

Q: What does the source list for LMCHATFTM?
A: Kd (HLA-B*15:01): 9.45 nM; Kd (HLA-B*35:01; [9]): 1600 nM

Q: How did the Kd (HLA-A*24:03; source organism: Escherichia coli O157:H7) turn out when RTLNELWFL was run?
A: 3.5 nM

Q: YHHTAINVL was tested. Which Kd (HLA-B*39:01) did it give?
A: 6.3 nM

Q: Which Kd (HLA-B*35:01; [11]) does the source give for LPDYGELTLD here?
A: 9960 nM

Q: What does the source list for ETKGKRRLL?
A: Kd (HLA-B*07:02): ≥ 20 µM; Kd (HLA-B*08:01): 7.47 µM; Kd (HLA-B*27:05): ≥ 20 µM; Kd (HLA-A*01:01): ≥ 20 µM; Kd (HLA-A*02:01): ≥ 20 µM; Kd (HLA-B*40:01 [2]): ≥ 20 µM; Kd (HLA-A*03:01): ≥ 20 µM; Kd (HLA-A*31:01): ≥ 20 µM; Kd (HLA-A*69:01): ≥ 20 µM; Kd (HLA-A*26:01 [3]): 7.12 µM; Kd (HLA-B*58:01; source organism: Shewanella violacea): ≥ 20000 nM; Kd (HLA-A*11:01): ≥ 20 µM

Q: How did the Kd (HLA-B*35:01; [5]) turn out when TPPGSVEAF was run?
A: 699 nM

Q: For MVQADSGCVI, which Kd (HLA-B*51:01; [5]) is on record?
A: ≥ 63.9 µM

Q: How did the Kd (HLA-B*57:01) turn out when VSLTECPTF was run?
A: 474 nM

Q: What about the Kd (HLA-B*58:01; source organism: Amur virus) of the same sequence?
A: 34.8 nM

Q: For TYGVCSKAF, which Kd (HLA-A*24:03; source organism: West Nile virus) is on record?
A: 24.5 nM

Q: FGIFTTNIWL was tested. Which Kd (HLA-B*51:01; [5]) did it give?
A: ≥ 20.6 µM

Q: IVIAPAMGM was tested. Which Kd (HLA-A*26:01 [4]) did it give?
A: ≥ 20 µM

Q: What does the source list for SDAALHNMI?
A: Kd (HLA-B*18:01; [15]): ≥ 77500 nM; Kd (HLA-B*45:01; [15]): 2.12 µM; Kd (HLA-B*40:01 [1]; [15]): ≥ 35.8 µM; Kd (HLA-B*40:02; [15]): 1930 nM; Kd (HLA-B*44:02; [15]): 7.07 µM; Kd (HLA-B*44:03; [15]): ≥ 31.7 µM

Q: YGGPISQHNY was tested. Which Kd (HLA-B*35:01; [5]) did it give?
A: 406 nM

Q: And the Kd (HLA-A*30:02)?
A: 192 nM
